Type in all cases: biochemical, Arabidopsis thaliana
Substrate in series [1]: N[C@@H](Cc1ccc(OP(=O)(O)O)cc1)C(=O)O
The series can be described thus: Malachite Green phosphate release, non-linear fit. As to conditions: pH 5.0, no metal, 37 °C, substrate inhibition above 3.0 mM.

Substrate in series [2]: Nc1ncnc2c1ncn2[C@@H]1O[C@H](COP(=O)(O)OP(=O)(O)OP(=O)(O)O)[C@@H](O)[C@H]1O
The series can be described thus: Malachite Green phosphate release, non-linear fit. The conditions noted are these: pH 5.0, no metal, 37 °C.

Substrate in series [3]: O=[N+]([O-])c1ccc(OP(=O)(O)O)cc1
The series can be described thus: phosphatase assay, non-linear fit. The conditions noted are these: pH 5.0, no metal, 37 °C.

B1: At1g05000 (Arabidopsis thaliana; M1S) (protein)
chain: SKLVEKTTTTEQDNGEDFCRTIIEVSEVNRNVFQAPGGEADPFRVVSGEELHLIPPLNFSMVDNGIFRSGFPDSANFSFLQTLGLRSIIYLCPEPYPESNLQFLKSNGIRLFQFGIEGNKEPFVNIPDHKIRMALKVLLDEKNHPVLIHCKRGKHRTGCLVGCLRKLQKWCLTSIFDEYQRFAAAKARVSDQRFMEIFDVSSFSHIPMSFSCSIR
As a reminder, the Km is the concentration of substrate that gives half-maximal velocity. By Vmax is commonly meant the top rate of the reaction or transport when substrate is in excess. Broadly, the kcat is the maximal rate divided by the concentration of active sites. What is called kcat/Km is the turnover number divided by the Michaelis constant. Take B1: in series [1], the Km amounted to 880 ± 100 µM, the Vmax was 0.19 µmol/min/mg, the kcat is 0.077 ± 0.004 s⁻¹ and the kcat/Km was 87.5 M⁻¹ s⁻¹. Also, in series [2], the Km was determined as 480 ± 50 µM, the Vmax turned out to be 1.52 µmol/min/mg, the kcat was found to be 0.62 ± 0.02 s⁻¹ and the kcat/Km came to 1290 M⁻¹ s⁻¹. In addition, in series [3], the Km came out at 670 ± 140 µM, the Vmax is 0.64 µmol/min/mg, the kcat amounted to 0.26 ± 0.02 s⁻¹ and the kcat/Km was determined as 392 M⁻¹ s⁻¹.

The values are drawn from publication PMC4437517.
